Laboratory results from the supplement of paper PMC9112550, “Optimization of the antimicrobial peptide Bac7 by deep mutational scanning” (BMC Biology, 2022).

system: Escherichia coli TOP10; experiment: shrunken log2 fold change of peptide-encoding DNA abundance (4.5 h post-induction vs induction); higher = less antimicrobial activity (less host growth inhibition); conditions: time post-induction: 4.5 h; library: site-saturation at positions 5, 18, 19, 20
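Further: peptides expressed intracellularly from a pBAD plasmid library in pooled LB shake-flask culture, induced with 0.3% L-arabinose, DNA abundance read by NGS, three biological replicates, DESeq2 with apeglm shrinkage.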

RRIRWRPPRLPRPRPRPWIHPRP and RRIRERPPRLPRPRPRPVSFPRP are within 0.2 log units of each other in “shrunken log2 fold change” value: -0.192 for the first, -0.0647 for the second.

First: RRIRCRPPRLPRPRPRPQTQPRP
Second: RRIRNRPPRLPRPRPRPGMNPRP
The “shrunken log2 fold change” value of the first is higher: 0.308 for the first, -0.02 for the second.

RRIRKRPPRLPRPRPRPFMTPRP and RRIRQRPPRLPRPRPRPYSEPRP are within 0.2 log units of each other in “shrunken log2 fold change” value: 0.168 for the first, 0.0294 for the second.

RRIRSRPPRLPRPRPRPTFRPRP and RRIRERPPRLPRPRPRPRVEPRP are within 0.2 log units of each other in “shrunken log2 fold change” value: -0.0691 for the first, -0.182 for the second.

Going from RRIRMRPPRLPRPRPRPGMQPRP to RRIRHRPPRLPRPRPRPIQNPRP, the “shrunken log2 fold change” value falls from -0.00144 to -0.252.

First: RRIRIRPPRLPRPRPRPAGPPRP
Second: RRIRFRPPRLPRPRPRPQKMPRP
The “shrunken log2 fold change” value of the first is higher: 0.153 for the first, -0.221 for the second.

Going from RRIRYRPPRLPRPRPRPLLVPRP to RRIRLRPPRLPRPRPRPWWVPRP, the “shrunken log2 fold change” value rises from -0.692 to 0.0559.

Compared with RRIRTRPPRLPRPRPRPPRWPRP, RRIRKRPPRLPRPRPRPVANPRP is lower in “shrunken log2 fold change” value: 0.689 for the first, 0.0525 for the second.

Compared with RRIRNRPPRLPRPRPRPHAIPRP, RRIRMRPPRLPRPRPRPSTKPRP is higher in “shrunken log2 fold change” value: -0.673 for the first, 0.291 for the second.

Compared with RRIRTRPPRLPRPRPRPRHSPRP, RRIRERPPRLPRPRPRPLHHPRP is lower in “shrunken log2 fold change” value: -0.106 for the first, -0.458 for the second.

RRIRYRPPRLPRPRPRPENNPRP and RRIRERPPRLPRPRPRPQCMPRP are within 0.2 log units of each other in “shrunken log2 fold change” value: -0.572 for the first, -0.586 for the second.

Going from RRIRRRPPRLPRPRPRPHFRPRP to RRIRGRPPRLPRPRPRPIWMPRP, the “shrunken log2 fold change” value rises from -0.0205 to 0.245.

Going from RRIRCRPPRLPRPRPRPRWLPRP to RRIRNRPPRLPRPRPRPSIAPRP, the “shrunken log2 fold change” value falls from 0.313 to -0.0838.

RRIRKRPPRLPRPRPRPWRMPRP and RRIRARPPRLPRPRPRPYPMPRP are within 0.2 log units of each other in “shrunken log2 fold change” value: 0.0773 for the first, 0.019 for the second.

First: RRIRERPPRLPRPRPRPRGIPRP
Second: RRIRCRPPRLPRPRPRPQYIPRP
The “shrunken log2 fold change” value of the first is higher: -0.102 for the first, -0.738 for the second.

Going from RRIRARPPRLPRPRPRPEQIPRP to RRIRLRPPRLPRPRPRPSDGPRP, the “shrunken log2 fold change” value falls from 0.419 to -0.162.

Going from RRIRDRPPRLPRPRPRPYCTPRP to RRIRNRPPRLPRPRPRPKVFPRP, the “shrunken log2 fold change” value rises from -0.253 to 0.0215.

First: RRIRVRPPRLPRPRPRPECQPRP
Second: RRIRWRPPRLPRPRPRPYIMPRP
The “shrunken log2 fold change” value of the first is higher: 0.353 for the first, -0.116 for the second.

RRIRGRPPRLPRPRPRPKDYPRP and RRIRCRPPRLPRPRPRPAVPPRP are within 0.2 log units of each other in “shrunken log2 fold change” value: -0.00224 for the first, 0.073 for the second.

Compared with RRIRLRPPRLPRPRPRPTQDPRP, RRIRFRPPRLPRPRPRPQCAPRP is lower in “shrunken log2 fold change” value: 0.488 for the first, 0.057 for the second.

Compared with RRIRYRPPRLPRPRPRPGLIPRP, RRIRGRPPRLPRPRPRPPKLPRP is higher in “shrunken log2 fold change” value: -0.0546 for the first, 0.524 for the second.

RRIRERPPRLPRPRPRPDSRPRP and RRIRSRPPRLPRPRPRPPYEPRP are within 0.2 log units of each other in “shrunken log2 fold change” value: -0.0302 for the first, 0.0519 for the second.

Compared with RRIRYRPPRLPRPRPRPYWCPRP, RRIRCRPPRLPRPRPRPYTQPRP is lower in “shrunken log2 fold change” value: -0.0606 for the first, -1.31 for the second.

RRIRCRPPRLPRPRPRPDDAPRP and RRIRWRPPRLPRPRPRPDMMPRP are within 0.2 log units of each other in “shrunken log2 fold change” value: -0.0228 for the first, -0.0236 for the second.

Going from RRIRYRPPRLPRPRPRPCMEPRP to RRIRVRPPRLPRPRPRPQRLPRP, the “shrunken log2 fold change” value rises from -0.0771 to 0.275.

RRIRYRPPRLPRPRPRPVCPPRP and RRIRYRPPRLPRPRPRPTCAPRP are within 0.2 log units of each other in “shrunken log2 fold change” value: 0.101 for the first, -0.0853 for the second.

Compared with RRIRARPPRLPRPRPRPAPLPRP, RRIRMRPPRLPRPRPRPHYMPRP is lower in “shrunken log2 fold change” value: 0.367 for the first, -0.425 for the second.

RRIRERPPRLPRPRPRPMGPPRP and RRIRSRPPRLPRPRPRPCVQPRP are within 0.2 log units of each other in “shrunken log2 fold change” value: -0.0976 for the first, -0.0792 for the second.

Going from RRIRFRPPRLPRPRPRPIHEPRP to RRIRDRPPRLPRPRPRPDNDPRP, the “shrunken log2 fold change” value rises from -0.169 to 0.212.

Going from RRIRPRPPRLPRPRPRPHQGPRP to RRIRRRPPRLPRPRPRPCLMPRP, the “shrunken log2 fold change” value rises from -0.213 to 0.434.

RRIRHRPPRLPRPRPRPKSEPRP and RRIRDRPPRLPRPRPRPFGIPRP are within 0.2 log units of each other in “shrunken log2 fold change” value: -0.00614 for the first, 0.0183 for the second.

Going from RRIRSRPPRLPRPRPRPDRQPRP to RRIRIRPPRLPRPRPRPVLHPRP, the “shrunken log2 fold change” value falls from -0.0702 to -0.447.

Compared with RRIRRRPPRLPRPRPRPTCQPRP, RRIRVRPPRLPRPRPRPNCLPRP is lower in “shrunken log2 fold change” value: 0.775 for the first, -0.105 for the second.

RRIRRRPPRLPRPRPRPSPYPRP and RRIRDRPPRLPRPRPRPNGEPRP are within 0.2 log units of each other in “shrunken log2 fold change” value: 0.0987 for the first, 0.0768 for the second.

Going from RRIRSRPPRLPRPRPRPWMHPRP to RRIRRRPPRLPRPRPRPIREPRP, the “shrunken log2 fold change” value rises from -0.0312 to 0.208.

Going from RRIRNRPPRLPRPRPRPYRSPRP to RRIRIRPPRLPRPRPRPKWNPRP, the “shrunken log2 fold change” value falls from -0.0179 to -0.454.

Compared with RRIRNRPPRLPRPRPRPCSRPRP, RRIRIRPPRLPRPRPRPTTYPRP is lower in “shrunken log2 fold change” value: -0.0877 for the first, -0.868 for the second.

First: RRIRHRPPRLPRPRPRPMVGPRP
Second: RRIRWRPPRLPRPRPRPPLDPRP
The “shrunken log2 fold change” value of the first is lower: -0.0276 for the first, 0.57 for the second.

First: RRIRDRPPRLPRPRPRPEWGPRP
Second: RRIRCRPPRLPRPRPRPMFWPRP
The “shrunken log2 fold change” value of the first is higher: 0.0825 for the first, -0.327 for the second.

RRIRIRPPRLPRPRPRPDTGPRP and RRIRTRPPRLPRPRPRPLMFPRP are within 0.2 log units of each other in “shrunken log2 fold change” value: -0.375 for the first, -0.516 for the second.

Going from RRIRGRPPRLPRPRPRPSHFPRP to RRIRSRPPRLPRPRPRPCAMPRP, the “shrunken log2 fold change” value rises from -0.621 to -0.173.

Going from RRIRERPPRLPRPRPRPFRIPRP to RRIRGRPPRLPRPRPRPANPPRP, the “shrunken log2 fold change” value rises from -0.367 to 0.476.

Going from RRIRKRPPRLPRPRPRPYGGPRP to RRIRRRPPRLPRPRPRPFHEPRP, the “shrunken log2 fold change” value falls from 0.0335 to -0.195.

Compared with RRIRIRPPRLPRPRPRPDSIPRP, RRIRLRPPRLPRPRPRPQANPRP is lower in “shrunken log2 fold change” value: -0.00884 for the first, -0.289 for the second.

Compared with RRIRIRPPRLPRPRPRPASNPRP, RRIRVRPPRLPRPRPRPFYVPRP is higher in “shrunken log2 fold change” value: -0.205 for the first, 1.07 for the second.

First: RRIRVRPPRLPRPRPRPHQEPRP
Second: RRIRRRPPRLPRPRPRPWGIPRP
The “shrunken log2 fold change” value of the first is higher: 0.113 for the first, -0.24 for the second.

First: RRIRCRPPRLPRPRPRPCTGPRP
Second: RRIRARPPRLPRPRPRPECKPRP
The “shrunken log2 fold change” value of the first is lower: -0.307 for the first, 0.769 for the second.

Compared with RRIRWRPPRLPRPRPRPSKKPRP, RRIRQRPPRLPRPRPRPNPCPRP is lower in “shrunken log2 fold change” value: 0.0769 for the first, -0.349 for the second.

First: RRIRERPPRLPRPRPRPFPGPRP
Second: RRIRCRPPRLPRPRPRPSTYPRP
The “shrunken log2 fold change” value of the first is higher: -0.0108 for the first, -0.768 for the second.

RRIRTRPPRLPRPRPRPHSQPRP and RRIRQRPPRLPRPRPRPQAKPRP are within 0.2 log units of each other in “shrunken log2 fold change” value: -0.101 for the first, 0.0346 for the second.

Going from RRIRPRPPRLPRPRPRPHNMPRP to RRIRPRPPRLPRPRPRPNHCPRP, the “shrunken log2 fold change” value falls from -0.745 to -1.08.

Going from RRIRVRPPRLPRPRPRPSRPPRP to RRIRPRPPRLPRPRPRPWAVPRP, the “shrunken log2 fold change” value falls from 0.196 to -0.227.

Going from RRIRCRPPRLPRPRPRPFPWPRP to RRIRDRPPRLPRPRPRPKTEPRP, the “shrunken log2 fold change” value rises from -0.361 to -0.0167.

RRIRWRPPRLPRPRPRPHKTPRP and RRIRFRPPRLPRPRPRPCQVPRP are within 0.2 log units of each other in “shrunken log2 fold change” value: 0.175 for the first, 0.084 for the second.

For RRIRNRPPRLPRPRPRPVHRPRP, the “shrunken log2 fold change” value was -0.0338.
